Among the data in patent US20250326842A1 are Kd and EC50 (read off the curve) values, retold here.

One assay concerns the target FcγRIIA H131 (human) (UniProt P12318). Put plainly: Biacore, KD from equilibrium analysis. In general terms: Surface plasmon resonance follows binding to a sensor surface in real time, without labels.
In another assay the target is FcγRIIA R131 (human) (UniProt P12318). The assay is described as follows: Biacore, KD from equilibrium analysis.
Another assay has as its target FcγRIIB (human) (UniProt P31994). Put plainly: Biacore, KD from equilibrium analysis.
Another assay concerns the target FcγRIIIA F158 (human) (UniProt P08637). Put plainly: Biacore, KD from equilibrium analysis.
Another assay concerns the target FcγRI (human) (UniProt P12314). The assay is described as follows: Biacore, KD from kinetic constants (koff/kon).
The next assay addresses Human C1q (human) (UniProt P02745). Put plainly: ELISA: plate coated with increasing amounts of antibody, human C1q at 8 µg/mL, anti-C1q antibody detection.

FcγRIIIA F158 (human), sequence (P08637 17-208 limits assumed): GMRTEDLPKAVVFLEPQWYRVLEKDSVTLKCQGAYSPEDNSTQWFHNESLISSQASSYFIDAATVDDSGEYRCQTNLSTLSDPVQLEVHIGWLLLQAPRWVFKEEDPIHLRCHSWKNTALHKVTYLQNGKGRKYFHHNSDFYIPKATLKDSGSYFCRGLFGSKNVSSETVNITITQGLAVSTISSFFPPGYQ
FcγRIIA H131 (human), sequence (P12318 36-218 limits assumed): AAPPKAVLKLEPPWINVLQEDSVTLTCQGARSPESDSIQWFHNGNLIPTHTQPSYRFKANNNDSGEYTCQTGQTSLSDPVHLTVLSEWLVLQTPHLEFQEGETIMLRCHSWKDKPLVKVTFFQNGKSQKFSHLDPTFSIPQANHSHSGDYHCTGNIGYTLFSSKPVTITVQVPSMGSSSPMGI
FcγRIIB (human), sequence (P31994 46-217 limits assumed): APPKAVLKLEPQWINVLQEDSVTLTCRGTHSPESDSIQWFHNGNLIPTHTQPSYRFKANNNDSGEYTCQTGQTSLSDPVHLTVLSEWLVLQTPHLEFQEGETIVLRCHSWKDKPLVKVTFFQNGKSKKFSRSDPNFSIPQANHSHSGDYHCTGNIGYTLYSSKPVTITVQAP
Human C1q (human), sequence (P02745 23-245 limits assumed, chain 1 of 3): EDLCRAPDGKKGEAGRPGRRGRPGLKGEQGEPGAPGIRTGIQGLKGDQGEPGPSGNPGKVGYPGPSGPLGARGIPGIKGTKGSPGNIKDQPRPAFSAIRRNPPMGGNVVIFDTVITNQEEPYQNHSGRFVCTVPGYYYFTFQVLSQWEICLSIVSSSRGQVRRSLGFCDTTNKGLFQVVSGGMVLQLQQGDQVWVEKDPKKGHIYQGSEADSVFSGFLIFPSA
Human C1q (human), sequence (P02746 28-253 limits assumed, chain 2 of 3, further chain): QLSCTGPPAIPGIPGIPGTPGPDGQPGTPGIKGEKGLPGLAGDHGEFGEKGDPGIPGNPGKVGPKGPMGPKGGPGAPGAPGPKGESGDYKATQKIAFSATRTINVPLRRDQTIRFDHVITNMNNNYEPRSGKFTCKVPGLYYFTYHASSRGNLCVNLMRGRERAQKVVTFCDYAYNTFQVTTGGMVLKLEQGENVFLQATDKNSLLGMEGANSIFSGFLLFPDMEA
Human C1q (human), sequence (P02747 29-245 limits assumed, chain 3 of 3, further chain): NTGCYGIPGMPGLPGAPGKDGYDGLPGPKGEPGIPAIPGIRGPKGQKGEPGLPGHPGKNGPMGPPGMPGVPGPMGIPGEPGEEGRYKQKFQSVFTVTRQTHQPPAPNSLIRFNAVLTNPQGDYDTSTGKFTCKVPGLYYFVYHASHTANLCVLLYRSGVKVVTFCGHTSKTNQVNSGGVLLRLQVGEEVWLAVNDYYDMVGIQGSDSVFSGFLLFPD
FcγRIIA R131 (human), sequence (P12318 36-218 H167R limits assumed): as the sequence (P12318 36-218 limits assumed) above, with H132R counted along it
FcγRI (human), sequence (P12314 16-288 limits assumed): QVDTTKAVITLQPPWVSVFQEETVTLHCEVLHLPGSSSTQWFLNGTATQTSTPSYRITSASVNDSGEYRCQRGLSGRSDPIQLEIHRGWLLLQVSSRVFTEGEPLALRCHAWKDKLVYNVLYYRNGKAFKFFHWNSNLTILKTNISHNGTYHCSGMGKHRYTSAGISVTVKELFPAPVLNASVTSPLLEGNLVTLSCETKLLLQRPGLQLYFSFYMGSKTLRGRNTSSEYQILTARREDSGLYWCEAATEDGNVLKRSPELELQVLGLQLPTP

In general, Kd refers to the free concentration of one partner at which half of the binding sites on the other are occupied at equilibrium, for simple one-to-one binding. A high value points to a looser complex. As usually defined, the EC50 (read off the curve) is the concentration giving half of the maximal effect. HuIgG (antibody): the Kd was 0.379 µM with FcγRIIA H131 (human); 0.481 µM in the assay with FcγRIIA R131 (human); 3.12 µM with FcγRIIB (human); 0.691 µM with FcγRIIIA F158 (human); 0.0027 µM in the assay with FcγRI (human). In the assay with Human C1q (human), this substance showed an EC50 (read off the curve) of 2 mg/L.
